Experimental data as given in the DeepSol protein solubility set.

assay: soluble on expression in E. coli; label from the status in PepcDB or PDB records

Sequence | soluble on expression in E. coli
MEIINDAELIRSMQRQQHIDAELLTDANVRFEQPLEKNNYVLSEDETPCTRVNYISLDDKTVRKFSFLPSVLMKETAFKTGMCLGSNNLSRLQKAAQQILIVRGYLTSQAIIQPQNMDSGILKLRVSAGEIGDIRYEEKRDGKSAEGSISAFNNKFPLYRNKILNLRDVEQGLENLRRLPSVKTDIQIIPSEEEGKSDLQIKWQQNKPIRFSIGIDDAGGKTTGKYQGNVALSFDNPLGLSDLFYVSYGRGLAHKTDLTDATGTETESGSRSYSVHYSVPVKKWLFSFNHNGHRYHEATEGYSVNYDYNGKQYQSSLAAERMLWRNRLHKTSVGMKLWTRQTYKYIDDAEIEVQRRRSAGWEAELRHRAYLNRWQLDGKLSYKRGTGMRQSMPAPEENGGDILPGTSRMKIITASLDAAAPFILGKQQFFYATAIQAQWNKTPLVAQDKLSIGSRYTVRGFDGEQSLFGERGFYWQNTLTWYFHPNHQFYLGADYGRVSGESAQYVSGKQLMGAVVGFRGGHKVGGMFAYDLFAGKPLHKPKGFQTTNTVYGFNLNYSF | not soluble
MANYWLYKSEPFKWSWEMQKAKGETGEEWTGVRNYQARNNMRAMKIGDKGFFYHSNEGLDVVGIVEVCALSHPDSTAEGDLKWDCVDIRAVCDMPQPVSLKDVKANPKLEKMSLVTSMRLSVQPVTEEEYLEVCRMGGLANPPKSPDLEHHHHHH | soluble
MEKASSPEKWLAKVSVTLTKAKPDEIWPLFTDFFNLHKWLPTLATCHGVHGNNGEQGCIRFCSGFSIGSNGVDSAARWSKEKLVAVNPVERVMRYEIVESNTGFESYVSTVKILPRGEDGCVIEWSFTVDPVRGLSLENLVKKYEKALEIITKNMEEDALRRRESSS | soluble
MSLGSAIETLERLLKKRLRVPQEQLDTNPWLLNCANGTVDLRTGTLKAHRPEDYITRVVPLNFDPKATAPEFITTLARITCEEGQAGKPLCAFLQRWFGYCATGEVREQKFAVLYGDGNNGKSTLLDLITGILGRYSGVAAPGLLTGKNGPQHPNAIADLAGRRMVTTHESGEGEVLREDFVKQATGGDTLKARYLYGEFFEFKPTHKLQLLTNHKPAIKGQDSGIWRRIMLIPFKAKFDAAEGEEIGNGKYPRDMRIAEKLAAEREGVLAWIVAGAVEWYKNGLRPPDIVLAASEDYKEEQDRVGQFIDEECELGVEKEEKLSTPMGGGLYPAYTQWCKASGVCALSKVRFLGGLERRVPGFKKKVTKETVGAGKRREFVVIQGVALVDADEGHHHHHH | not soluble
MSLEFLEQEGQEVLTKEIKAGFCEITPSSITEQTTKPQLDETQLVDEYVHTKELETTPIPISFATKEVLFEEVFNTPSTQQVDESVLVNEYIELTQQIKNASEQVSSNHTHKFSVATEPAATKAVSETMLLDDYVEMVEQDVQAQTALPQAALDPTVSLTFSSPIDSNAILVYPEMKVPHVFDTVAPTTTTVPLDQTQLLDELVEVPVLTHTVTPAPLQPKAAPTNFALDQTQLVDELVTVPLTHTLVNESAPVTPVVVTSPAAEHSFSITTVDKANLTNALSQTVVIKPAEDSAHQSAVLDKEIATKQAQLQQLQAQIELRQAQLETPPVTYMGVEEYKLLPVQDVVPVQPTVSFEMTLLQEQLDKALKHNAALQIQLEEQLAKPLQYDQSPVLQERIELLQNQNTNLTQELNELQQKLFKSQNNSLLLARLEEENRTLKQHLQNNLPEANQLNFVLEKQLEQLQQDKHSLTLQIEQYKFDSKKHQEQLALIPSLRSEINSLETEVISLKQTNQRLSLIERENNFLKTEIKQLRETKLNDENTKYRNLLKQYELMRADSDAKLKELEHEQHLAHQHHQEQLAQLQRHNEALVKELDQVKATNFELGLAAQGFEQQKVVLEQKNSSLLASLQAAEENVQALGITNSELQNQLNVLEFTHKEKTAFDSKTLTLTKQQLEQTQFDLSLTQEQLATFKQQNQSLTDKLMASETQLNHLQQSDENLTQLQTQHELLQESYNKLQDEANHTQQQFHQAQNELDAAHQQLALFKQNNEELTDKCSNIQNELHDLNRVKTNWENLNTEHNLLQDKYAQQKEQMQHEHSNLAQIQAEHELLQESYNKVKAELNEIQITNLNEANAQYQDLLSAYELLQSNHNKLKQELQVLNQVNLEKQQLAQKLHNTHQSLSQTHAELTQLQAAYNNLQATPPVSDELLEQFNQVQLEKQRLLQQNLALVHELQYFNELNSSQTHEIKTKQDETVKEVIIVEKEIPVPPEKKPRLKKRDIVIENKEDALGKLSKKERIQAYAERLAKINGKQEGHHHHHH | not soluble
MKWGFRWYGAAGDAIPLKHIRQIPGITGVVGTLLNKLPGDVWTVAEIQALKQSVEQEGLALLGIESVAIHDAIKAGTDQRDHYIDNYRQTLRNLGKCGISLVCYSFKPIFGWAKTDLAYENEDGSLSLLFDQAVVENMQPEDMYQLIHSQSKGFRLPGWEEERLQQFQELKAMYAGVTEEDLVENLRYFLERVIPVCEEENIKMGIHPDDPPWEIFGLPRITKNLADLKRILSLVDSPANGITFCTGSLGADPTNDLPTMIREIGHRINFVHFRNVKYLGEHRFEETAHPSVAGSLDMAELMQALVDVGYEGVIRPDHGRAIWDEKAMPGYGLYDRAMGLTYIQGLYEATKAKQNRKLEHHHHHH | soluble
RGKDITVWFQRLLDRMTDFFSSLSGRRKVCSKPRFRVRRTTNPAAKKSGTDPKIRETKTSIDEILDKIRISGYASLTAEEKRHLFDQSKRL | not soluble
MGSDKIHHHHHHMEYISLNRLGGAAGCPADAEAAARFRAALPEGCKGTFAVARRIAPVIIDFDLVMQEGAASVSLAKGLGLPVVPCIRRQVERARTDFPQRLQLELTNCCNNDCVMCPRHGGHFTRKPKHMDLDLVRRALDEIAQHYNYQLQLFHIGEPLLHPRIFEILDMLEDYPTLGRKWISSKGQELTPDIMRRVLTSKVDYFNYSLLAMTPATYARIVPNGDYATVRGNLERLADLKRDLGVQRPYLRAQMIEMDEALHEIDAFLDTWADRVDLLSVNRLETFSNRIDAKVTSAIKPRESIGPRACKRLERGDLYILSNGEVTVCDTDFNGELSLGNLNETTLAEMARGARYRQIIDSHERGDYSQIELCRHCEDWNL | not soluble
METVTLSEARVYVGTYNKYNSGSLFGKWLDLSDYSDKDEFMEACRELHKDDQDPEFMFQDYENIPEALISESWLSDKFFELRDAIEKLSETQQEAFFVWCDHHNNDISEEDADDLISSFEDEYQGEYKDEEDYAYEIVEECYDLPEFAKTYFDYSAFARDLFMTDYWMDNGFVFRCA | not soluble
MCVGVPMTVVTSDNGTALCERRGEQRRVSTLLIGEVAVGDRVLVFIDNAMRLLEPDEARLIDDALDGLAAAMQGRDFEHLFADLIDREPQLPAFLRNDVVPPHG | not soluble
MGESGLFDTPDQKVGLTGRPLREFPEPEPLHKHGPAKIISMCNQKGGVGKTTSTINLGACLAEAGRKVLLVDLDPQGALSAGLNIPHEELEITVYNLLVDRHTSIHQAIHHTSVDGLDLVPANIDLSAAEIQLVNEVGREQTLARALRPVMRDYDFIILDCQPSLGLLTVNALTCSHGVIIPMECEYFSLRGLALLTDTVEKVRDRLNFDLEIVGILVTMFDRRTTHAREVMSRVVEVFEDRVFDTVITRTVRFPETSVAGEPITTWAPSSQGAQQYRQLAREVIERTA | not soluble
MVKNQFPLVADGIAISDPAKQMALYENEDLITNIRGYYQDKEYDDIARNEEFTAKATSRQTPSSKRFCSNDEKHHYVKEARQKAKQDLKEKRQAYLAKEMAYVPKQVSKKQQPADSSPSQKQATTEMSRFTKKLHQDNYILAELPKEYKEPKNLPQQGTTKKNNYDFLKSSQIYNNKEMRQQREKTIAQELNLSRFEDLP | not soluble
MAHHHHHHMRASERVPADDAATRVCPHSLIDSPSPSLMQAASAVATATATSSGIANLKQEASHEERLKVADHTAVKAWSLLNKMWYPDYHMASLAGWMGVPGGLCYHNGFYHVFYQYNPFSENWGPMHWGHMTSEDLVHWQHQPIALAPGELFDHDGCFSGSSVSYNNKLYIFYTGHTWRTESEKGSGNGTMGDGASFYQQQCVAVSSDGVNFEKLGAVVRPPPGYVHFRDPKVWQQDGRWWMVCGARDVTKDLGQLLLFTTEDLLKWDDTNWQVLGMTEDKNVFMWECPDMFRLGQMNVFLYSPQGMRKADYAYRNRFQSGYLLGSWNMSLVTAALSEREAGSPKGTASGSHAIGGPRWLASFDVTQRFREIDRGHDFYAPQTLLTKDGRRLIIGWMDMWESPMPTRGHGWSGCLTLPRELILDPFTGSVRMVPPKELLQLRCAQATILAQRIQESTDVLLVESCTAYELDIAFNMETSTAEKYGLWLGSGAELYVDAQSKRLVLNRHYPQHMLSGYRSCELPIGLLLQLHVFIDRSSIEVFVNNGEATFSSRVFPDEGDRALRVFSVNGTADMVGGTMWKLKATVRH | not soluble
MGSDKIHHHHHHMNIELADLRLFVMIAECGNLTHGAARAFLSPPAASARIKAMEQEIGQQLLVRKNKGVELTPSGDALLRHARLVLRQFDFLTDDMTNAQMGHLRIYANTTGVTEFLPAILARFLADHPGVRVDLQERLTQEIIRAVADGTADIGIISGTEGRDGLERLRFATDRLMLAVPSGHHLAHHDQVSLEQTLAFEHIALHDGSTLLDFLRRQLRRSAFDRQLRIQVRSFEAMCRLIEAGVGIGVVPESAALRHLQTMDITLLALADDWAVRDRSILVRRWADLPQSAQRLIDLLVEKEAGGAEV | not soluble
GPRRLSIEGNIAVGKSTFVKLLTKTYPEWHVATEPVATWQNIQAAGNQKACTAQSLGNLLDMMYREPARWSYTFQTFSFLSRLKVQLEPFPEKLLQARKPVQIFERSVYSDRYIFAKNLFENGSLSDIEWHIYQDWHSFLLWEFASRITLHGFIYLQASPQVCLKRLYQRAREEEKGIELAYLEQLHGQHEAWLIHKTTKLHFEALMNIPVLVLDVNDDFSEEVTKQEDLMREVNTFVKNL | soluble
MRTIEFQAKQLLMEKLDKNLLDHAKSLTDGNGPQIVDVYGLQQLAEVHCYLKTTHQFDPAEVEALLQFADPLEAACHCWEMNTHEYSFPICDLLRETRARELFELAKPEPPAKLSVREQLRAAVKEARQNLAPEERTKGGEAR | not soluble
VEHEQQVTESPSLASVPTADELFDFHIGDRVLIGNVQPGILRFKGETSFAKGFWAGVELDKPEGNNNGTYDGIAYFECKEKHGIFAPPQKISHIPENFDDYVDINEDED | soluble
MKVSTKDKIIESAVMLFNQKGFSGTSVREIAKSADVNVAHISYYFKGKGGLMEHLVSEFYEGYSKTLETAASNISTQSTQEQLLQLVFDILSYQHNHRQLTRFVYREVTIDSTLIREIMSTYLMKEKYIFQLIIEEGEKQREYLTLPLPHFILQLKSLLMMPYLQPQYISEVLYMQPHEPYFYKMYFEEIKIWIRSVFRTGDVALTN | not soluble
MSSFQLQQLPSLPIKEVFKSLGVCDLLNLCRSSNKSRRLVKKSLKDITFTLKIVAEEKHYKIWLKEDFSKHKARIRAENSNGTSLFKNIRWLMHTFWVETVYLDCTNVEEGDVVKVVEYLKKEKPYYLKLYFECPMISDSLWQLMLNCEADVLIISVDREVKVTFDNVPLLFNCECIILHGVKFSEKGMNLLFKTWQSSKERTLQCVSLTRKLGPFWKKQANEKVVLKGIDVESVEKKRIFKVKKDGIKKSTTYNLVKNDGELATLKFDKQEICFHTENDR | not soluble
MGGSHHHHHHGMASSSNVPADMINLRLILVSGKTKEFLFSPNDSASDIAKHVYDNWPMDWEEEQVSSPNILRLIYQGRFLHGNVTLGALKLPFGKTTVMHLVARETLPEPNSQGQRNREKTGESNCCVIL | not soluble
